Blank lines part the entries; values can stand above or below the binder they belong to.
Columns and labels:
[1] = target: T1, hen egg-white lysozyme (HEL) (hen, UniProt P00698 19-147); assay: biolayer interferometry (Example 5); printed as 'Affinity (nM)' in Table 4
T1 construct: Bought protein; It was biotinylated for phage selection; In BLI it was captured through biotinylated HyHEL-10 or HyHEL-5 Fab; also called hen egg white lysozyme antigen

[2] = target: T1, hen egg-white lysozyme (HEL); assay: biolayer interferometry (BLItz); HEL captured by biotinylated HyHEL-10 Fab on streptavidin sensors; Ig5 at 2000, 1000, 500 nM
[3] = target: T1, hen egg-white lysozyme (HEL); assay: biolayer interferometry (BLItz); HEL captured by biotinylated HyHEL-5 Fab on streptavidin sensors; Ig12 at 1000, 750, 375 nM
[4] = target: T1, hen egg-white lysozyme (HEL); assay: printed as 'Affinity (nM)' in Table 4; method not given; differs from the 30 nM of Example 5
[5] = target: T2, mouse VEGFA164 (mouse, UniProt Q00731-2 27-190); assay: biolayer interferometry
T2 sequence (looked up): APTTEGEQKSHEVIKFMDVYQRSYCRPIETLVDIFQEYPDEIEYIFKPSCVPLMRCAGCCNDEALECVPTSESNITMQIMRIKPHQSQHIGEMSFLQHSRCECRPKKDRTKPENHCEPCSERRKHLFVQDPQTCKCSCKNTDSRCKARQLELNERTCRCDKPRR

[6] = target: T3, human PlGF (human, UniProt P49763-2 19-149, limits assumed); assay: biolayer interferometry
T3 sequence (looked up): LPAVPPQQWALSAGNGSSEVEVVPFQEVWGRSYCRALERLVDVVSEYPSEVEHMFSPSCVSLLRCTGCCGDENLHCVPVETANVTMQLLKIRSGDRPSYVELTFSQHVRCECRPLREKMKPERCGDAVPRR

[7] = target: T4, human VEGFB (human, UniProt P49765-2 22-188, limits assumed); assay: biolayer interferometry
T4 sequence (looked up): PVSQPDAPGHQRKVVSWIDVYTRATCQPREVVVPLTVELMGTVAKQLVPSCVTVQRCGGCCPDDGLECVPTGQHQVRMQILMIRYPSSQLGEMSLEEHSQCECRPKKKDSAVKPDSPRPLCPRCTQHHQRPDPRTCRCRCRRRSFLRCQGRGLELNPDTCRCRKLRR

[8] = target: T5, human VEGFA 121 (human, UniProt P15692-9 27-147, biotinylated (BLI assays)); assay: bio-layer interferometry on immobilised VEGF (biotinylated VEGFA 121 by paragraph 199)
T5 construct: also called biotinylated VEGF
T5 sequence (looked up): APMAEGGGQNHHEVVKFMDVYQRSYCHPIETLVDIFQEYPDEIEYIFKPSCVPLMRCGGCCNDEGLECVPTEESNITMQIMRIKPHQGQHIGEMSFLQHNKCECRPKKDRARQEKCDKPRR

[9] = target: T5, human VEGFA 121; assay: biolayer interferometry, generally the same method as for Ig5 and Ig12; immobilized biotinylated VEGF

T1 sequence (P00698 19-147): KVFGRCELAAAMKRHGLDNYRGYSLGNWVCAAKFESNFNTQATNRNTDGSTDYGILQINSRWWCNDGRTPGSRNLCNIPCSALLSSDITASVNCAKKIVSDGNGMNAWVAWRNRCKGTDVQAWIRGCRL

Kd [1]: 0.13 µM
koff [2]: 0.0057 s⁻¹
kon [2]: 43000 M⁻¹ s⁻¹
B1: immunoglobulin homodimer Ig5 (other)
VL: DIQMTQSPSSLSASVGDRVTITCRASQDIAAALNWYQQKPGKAPKLLIYASSYLQSGVPSRFSGSGSGTDFTLTISSLQPEDFATYYCQQDGYYPATFGQGTKVEIKR
notes: also called VL5; Ig52

Kd [3]: 0.03 µM
koff [3]: 0.0025 s⁻¹
kon [3]: 84000 M⁻¹ s⁻¹
Kd [4]: 0.064 µM
B2: immunoglobulin homodimer Ig12 (other)
VL: DIQMTQSPSSLSASVGDRVTITCRASQDIASDLNWYQQKPGKAPKLLIYSDSYLQSGVPSRFSGSGSGTDFTLTISSLQPEDFATYYCQQYYMIPSTFGQGTKVEIKR
notes: Homodimer of two identical human Vkappa1 light chain variable domains, expressed in E. coli and purified on Protein L. Structure with HEL is PDB 4N1C; also called VL12; Ig122

Kd [5]: < 0.01 µM
binding result [6]: no binding
binding result [7]: no binding
Kd [8]: ~0.003 µM
B3: VLD9 fused to mouse IgG2c hinge-Fc region (VLD9-Fc, long native hinge) (Fc fusion)
chain: DIQMTQSPSSLSASVGDRVTITCRASRAIAAYLNWYQQKPGKAPKLLIYAYSDLQSGVPSRFSGSGSGTDFTLTISSLQPEDFATYYCQQVWANPYTFGQGTKVEIKRA
notes: domain: hinge and Fc region; Expressed in Expi293 cells; also called VLD9-Fc native hinge; VLD9-Fc fusion protein; not shown: Mouse IgG2c hinge and Fc region

Kd [9]: < 0.01 µM
B4: VLD9 homodimer (other)
VL: DIQMTQSPSSLSASVGDRVTITCRASRAIAAYLNWYQQKPGKAPKLLIYAYSDLQSGVPSRFSGSGSGTDFTLTISSLQPEDFATYYCQQVWANPYTFGQGTKVEIKRA
notes: Homodimer of two identical human light chain variable domains selected on VEGF; Expressed generally as Ig5 and Ig12 were; also called VLD9 dimer; immunoglobulin VLD9

— patent US20200033363A1 (GARVAN INSTITUTE OF MEDICAL RESEARCH, published 2020)
